Experimental data from patent US20230192897A1 (NUMAB THERAPEUTICS, published 2023).
“And” between values parts separate entries of the source, which are not always exact repeats. Equal values may be shown once. Read-outs that look alike come from different tables or passages of the source.

Key:
[1] = biological target: T1, CD137 on Jurkat NFkB reporter cells (human, UniProt Q07011 24-255); test: cell-based or functional assay
[2] = biological target: T1, CD137 on Jurkat NFkB reporter cells; test: cell-based or functional assay; remark: listed apart in the source
human PDL1 on cells = human PDL1 on cells (human, UniProt Q9NZQ7 19-290); test: cell-based or functional assay
[3] = biological target: T1, CD137 on Jurkat NFkB reporter cells; test: cell-based or functional assay; remark: listed apart in the source
Fc tagged human CD137 = biological target: T2, Fc tagged human CD137 (human, UniProt Q07011 24-186); test: SPR
T2 construct: also called CD137-Fc chimeric protein
Outline: (§1)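 Kinetics were fitted with a one-to-one Langmuir model to give apparent ka, kd and KD. Binders at 0.12-90 nM (three-fold series) flowed 3 min, with 10 min dissociation and 3 M MgCl₂ regeneration, on a Biacore T200.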

[4] = biological target: T3, mouse CD137-Fc chimeric protein (mouse, UniProt P20334 24-187, limits assumed); test: SPR
T3 sequence (looked up): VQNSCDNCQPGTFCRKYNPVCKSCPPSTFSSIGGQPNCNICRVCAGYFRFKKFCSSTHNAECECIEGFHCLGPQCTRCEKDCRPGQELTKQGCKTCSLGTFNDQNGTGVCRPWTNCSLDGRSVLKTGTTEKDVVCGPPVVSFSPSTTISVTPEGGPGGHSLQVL
Outline: as §1

[5] = biological target: cynomolgus CD137-Fc chimeric protein (cynomolgus monkey, UniProt A9YYE7 24-186); test: SPR
Outline: as §1

Fc tagged human PDL1 = biological target: T4, Fc tagged human PDL1 (human, UniProt Q9NZQ7 19-239); test: SPR
T4 construct: Bought (Sino Biological, cat. 10084-H02H); captured on the SPR chip; also called PDL1-Fc chimeric protein
Outline: as §1

biotinylated human PDL1 [6] = biological target: T5, biotinylated human PDL1 (human, UniProt Q9NZQ7 19-238, limits assumed, biotinylated); test: competition ELISA PD-1/PDL1
T5 construct: also called biotinylated PDL1

[7] = biological target: T1, CD137 on Jurkat NFkB reporter cells; test: cell-based or functional assay; remark: listed apart in the source
biotinylated human PDL1 [8] = biological target: T5, biotinylated human PDL1; test: competition ELISA B7.1/PDL1
Outline: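 Test mixtures containing biotinylated human PDL1 were pre-incubated 1 h at room temperature, then incubated 1.5 h on the plate under agitation. Bound PDL1 detected with 10 ng/ml streptavidin-polyHRP40 and TMB, stopped at 6 min with HCl, read at 450 nm minus 690 nm. IC₅₀ from 4PL fit.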

In the case of urelumab (antibody), the EC50, NFkB reporter, CHO-PDL1 [1] is reported as 0.0795 µg/mL and 0.104 µg/mL and 0.0865 µg/mL, the Top of curve fit, NFkB reporter, CHO-PDL1 [1] is reported as 100 and the EC50, NFkB reporter, CHO-PDL1 [2] is reported as 0.0791 µg/mL. For the same molecule, the EC50, NFkB reporter, CHO-PDL1, 6 h [2] was 0.0565 µg/mL, the EC50, NFkB reporter, CHO-PDL1, 6 h, +HSA [2] was 0.0777 µg/mL and the EC50, NFkB reporter, CHO-PDL1, 24 h [2] was 0.0466 µg/mL. For the same molecule, the EC50, NFkB reporter, CHO-PDL1, 24 h, +HSA [2] was 0.0782 µg/mL, the EC50, NFkB reporter, HCC827 with IFNg [2] was 0.114 µg/mL and 0.145 µg/mL and 0.108 µg/mL and the EC50, NFkB reporter, HCC827 with IFNg, 24 h [2] was 0.0528 µg/mL. For the same molecule, the EC50, NFkB reporter, HCC827 without IFNg [2] was 0.212 µg/mL and 0.11 µg/mL and 0.112 µg/mL, the EC50, NFkB reporter, HCC827 without IFNg, 24 h [2] was 0.0475 µg/mL and the Top of curve fit, NFkB reporter, CHO-PDL1 [2] was 102. The Top of curve fit, NFkB reporter, HCC827 with IFNg [2] was 100 and the Top of curve fit, NFkB reporter, HCC827 without IFNg [2] was 100.

B1: PRO951 (bispecific antibody)
chain: DIQMTQSPSSLSASVGDRVTITCQASQSINDYLAWYQQKPGKAPKLLIYKASTLASGVPSRFSGSGSGTDFTLTISSLQPEDFATYYCQQGYIITDIDNVFGTGTKVTVLGGGGGSEVQLVESGGGLVQPGGSLRLSCAASGFSFNNDYDMCWVRQAPGKGLEWIGCIDTGDGSTYYASWAKGRFTISRDNSKNTVYLQMNSLRAEDTAVYYCAREAASSSGYGMGYFDLWGQGTLVTVSSGGGGSGGGGSGGGGSGGGGSIQMTQSPSSLSASVGDRVTITCQSSQSVYDNNWLAWYQQKPGKAPKLLIYRASNLASGVPSRFSGSGSGTDFTLTISSLQPEDFATYYCQGTYLSSNWYWAFGTGTKVTVLGGGGGSQVQLQESGPGLVKPSETLSLTCKVSGFSFSSGYDMCWIRQPPGKGLEWIGCVVAGSVDITYYASWAKGRVTISVDSSKNQFSLKLSSVTAADTAVYYCARKDAYSDAFNLWGQGTLVTVSS
notes: scDb anti-PDL1 x CD137; also called 38-27-C05 sc02 scDb-i/33-03-G02 sc01 scDb-o
With B1 the “IC50 (ng/ml), NF-AT potency assay” value (human PDL1 on cells) was 88.5 ng/mL, the “rel. IC50 (avelumab/test)” value (human PDL1 on cells) was 0.47 fold and the “IC50 (ng/ml), NFkB reporter, CHO-PD-L1” value [3] was 33.7 ng/mL. For the same molecule, the “max. activation (%), NFkB reporter, CHO-PD-L1” value [3] was 432%, the “rel. IC50 (urelumab/test), NFkB reporter, CHO-PD-L1” value [3] was 2.35 fold and the Kd (Fc tagged human CD137) was 4.2 nM. The binding result [4] was “no binding”, the Kd [5] was 6.9 nM and the koff [5] was 0.01 s⁻¹. The kon [5] was 1.5e+06 M⁻¹ s⁻¹, the kon (Fc tagged human PDL1) was 2.2e+06 M⁻¹ s⁻¹ and the IC50 (biotinylated human PDL1 [6]) was 0.0095 µg/mL. The “rel. IC50 (IC50 avelumab/IC50 test)” value (biotinylated human PDL1 [6]) was 0.15 fold, the “EC50, NFkB reporter, CHO-PDL1” value [7] was 0.0337 µg/mL and the IC50 (biotinylated human PDL1 [8]) was 0.0093 µg/mL. For the same molecule, the “rel. IC50 (IC50 avelumab/IC50 test)” value (biotinylated human PDL1 [8]) was 0.78 fold.
